Blank lines part the entries; values can stand above or below the binder they belong to. Where no end group is shown, it is not given here. [ ]: non-standard residue; d: D form. Hyp = O=C(O)[C@@H]1C[C@@H](O)CN1
What was measured:
[1] = molecular target: T1, human von Hippel-Lindau tumor suppressor protein pVHL (19 kDa) (human, UniProt P40337-3 1-160); assay: ELISA; ELISA-based binding assay: pVHL or dVHL (10 µg/ml, 500 nM, in 10 mM Tris-HCl pH 8, 200 mM NaCl, 200 mM GnHCl) coated on the plate overnight at 4°C, blocked with 5% BSA; TAMRA-labelled peptide at increasing concentrations, 1 h at 25°C; fluorescence at 580 nm, after subtraction of the BSA control; details: both partners purified
T1 construct: numbers count on: the 30 kDa isoform (Y98, W117 and so on)
T1 sequence (P40337 54-213): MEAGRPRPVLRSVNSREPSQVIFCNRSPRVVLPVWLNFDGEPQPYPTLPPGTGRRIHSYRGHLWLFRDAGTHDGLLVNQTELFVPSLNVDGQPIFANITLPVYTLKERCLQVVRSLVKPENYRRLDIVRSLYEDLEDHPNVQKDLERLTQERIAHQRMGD

[2] = molecular target: T2, Drosophila von Hippel-Lindau protein dVHL (Drosophila melanogaster, UniProt Q9V3C1 1-178); assay: as above; details: both partners purified
T2 construct: Drosophila melanogaster VHL (dVHL), ORF re-engineered to E. coli codon usage, cloned in pET14b (NdeI/XhoI); migrated as a 19 kDa protein; also called Drosophila VHL
T2 sequence (looked up): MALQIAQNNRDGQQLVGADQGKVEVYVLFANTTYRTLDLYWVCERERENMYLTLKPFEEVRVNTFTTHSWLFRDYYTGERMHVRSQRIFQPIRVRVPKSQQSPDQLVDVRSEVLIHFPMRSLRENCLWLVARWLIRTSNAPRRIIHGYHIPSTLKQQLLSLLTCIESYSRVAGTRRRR

fold stronger binding than to dVHL [1]: ~1.5 fold | binding result [2]: binds
B1: Hyp850-ODD-SIMA peptide (SIMA residues 841-857, hydroxyproline 850, TAMRA-labelled) (peptide)
peptide: SFEAFAGRA[Hyp]YIPIDDD
modifications: also: TAMRA label, position not given here
notes: Drosophila SIMA (fly homolog of HIF1-α), residues 841-857 of its ODD; The peptide has two prolines (P850 and P853); by its name the hydroxylated one is P850; also called SIMA-derived peptide; source: synthetic peptide (Hy Laboratory Ltd, Israel)

fold stronger binding than to dVHL [1]: ~1.5 fold | binding result [2]: binds
B2: Hyp402-ODD-HIF peptide (HIF1-α residues 395-413, hydroxyproline 402, TAMRA-labelled) (peptide)
peptide: DALTLLA[Hyp]AAGDTIISLDF
modifications: also: TAMRA label, position not given here
notes: human HIF1-α, residues 395-413 of the oxygen dependent degradation domain; also called HIF1-α P402; HIF1-α-derived peptide; source: synthetic peptide (Hy Laboratory Ltd, Israel)
